This test has as its target Taxol-stabilized Cy5-microtubules. Kind of test: single-molecule TIRF microscopy.

As to “mouse GFP-fused FL MT1 (M356T) Kif21a (natural protein)”, the fold increase in the frequency of active landing events against FL WT Kif21a amounted to 10 fold.
In turn, “mouse GFP-fused FL MT3 (R943W) Kif21a (natural protein)” gave a fold increase in the frequency of active landing events against FL WT Kif21a of 10 fold.
